Source: the RNAGym collection of RNA variant scans (doi:10.1021/acssynbio.7b00057)

B1: Pistol ribozyme (parent)
chain: GGGUCGUUGUUCCAUAAUCGCGUGGAUAUGGCACGCAAGUUUCUACCGGGCACCGUAAAUGUCCGACUGGAGCCGUUCGGGCGGCUAUAAACAGACCUCAGGCCCGAAGCGUGGCGGCACCUGCCGCCGGUGGUAAAAAAGAUCGGAAGAGCACACGUCU

Variants of: B1
Experiment: aptazyme ON/OFF ratio, guanine; higher = stronger switching; co-transcriptional cleavage with and without guanine

Variant | aptazyme ON/OFF ratio
U7G U8C G9C U10G U11C C12G C13U | 1.19
U7G U8C G9C U10G U11C C12G C13G | 1.15
U7G U8C G9C U10G U11C C12G C13A | 1.29
U7G U8C G9C U10A U11G C13G | 1.15
U7G U8C G9C U10A U11G C13U | 1.18
U7G U8C G9C U10A U11G C13A | 1.14
U7G U8C G9C U10C U11A C12A C13G | 1.09
U7G U8C G9C U10C U11A C12A C13A | 1.04
U7G U8C G9C U10C U11A C12A C13U | 1.04
U7G U8C G9C U11G C12A C13A | 1.14
U7G U8C G9C U11G C12A C13U | 1.23
U7G U8C G9C U11G C12A C13G | 1.33
U7G U8C G9C U11C C13U | 1.38
U7G U8C G9C U11C C13A | 1.46
U7G U8C G9C U11C C13G | 1.05
U7G U8C G9C U11C C12A C13A | 1.11
U7G U8C G9C U11C C12A C13U | 1.53
U7G U8C G9C U11C C12A C13G | 1.21
U7G U8C G9C U10A U11G | 1.51
U7G U8C G9C U10A U11A | 3.4
U7G U8C G9C U10A U11C | 1.18
U7G U8C G9C U10G C12G C13G | 1.07
U7G U8C G9C U10G C12G C13A | 1.09
U7G U8C G9C U10G C12G C13U | 1.1

Variant | aptazyme ON/OFF ratio
U7G U8C G9C U10C U11G C12A C13G | 1.09
U7G U8C G9C U10C U11G C12A C13U | 1.1
U7G U8C G9C U10C U11G C12A C13A | 1.19
U7G U8C G9A U10G U11G C12G C13A | 1.13
U7G U8C G9A U10G U11G C12G C13G | 1.2
U7G U8C G9A U10G U11G C12G C13U | 1.14
U7G U8C G9C C12G C13G | 1.12
U7G U8C G9C C12G C13U | 1.09
U7G U8C G9C C12G C13A | 1.13
U7G U8C G9C U10G U11C | 1.15
U7G U8C G9C U10G U11G | 1.17
U7G U8C G9C U10G U11A | 1.11
U7G U8C G9C U10A U11A C12U C13G | 1.09
U7G U8C G9C U10A U11A C12U C13U | 1.08
U7G U8C G9C U10A U11A C12U C13A | 1.07
U7G U8C G9C U11A C12A | 1.19
U7G U8C G9C U11A C12U | 1.23
U7G U8C G9C U11A C12G | 1.2
U7G U8C G9C U10G U11G C13U | 1.06
U7G U8C G9C U10G U11G C13G | 1.12
U7G U8C G9C U10G U11G C13A | 1.1
U7G U8C G9A U10G U11G C12U C13A | 1.28
U7G U8C G9A U10G U11G C12U C13U | 1.52
U7G U8C G9A U10G U11G C12U C13G | 1.22

Variant | aptazyme ON/OFF ratio
U7G U8C G9A U11G C12G C13U | 1.05
U7G U8C G9A U11G C12G C13A | 1.07
U7G U8C G9A U11G C12G C13G | 1.08
U7G U8C G9C U10C U11G C13U | 1.07
U7G U8C G9C U10C U11G C13A | 1.07
U7G U8C G9C U10C U11G C13G | 1.14
U7G U8C G9A U11G | 1.3
U7G U8C G9A U11A | 2.48
U7G U8C G9A U11C | 1.4
U7G U8C G9C U11G C13U | 1.25
U7G U8C G9C U11G C13A | 1.24
U7G U8C G9C U11G C13G | 1.17
U7G U8C G9C U10G U11A C12A C13G | 1.11
U7G U8C G9C U10G U11A C12A C13A | 1.1
U7G U8C G9C U10G U11A C12A C13U | 1.25
U7G U8C G9C U10G U11G C12G | 1.13
U7G U8C G9C U10G U11G C12A | 1.17
U7G U8C G9C U10G U11G C12U | 1.06
U7G U8C G9A U11C C13G | 1.06
U7G U8C G9A U11C C13A | 1.34
U7G U8C G9A U11C C13U | 1.21
U7G U8C G9A U11C C12A C13A | 1.11
U7G U8C G9A U11C C12A C13G | 1.17
U7G U8C G9A U11C C12A C13U | 1.5

Variant | aptazyme ON/OFF ratio
U7G U8C G9C U10G U11C C12A C13U | 1.36
U7G U8C G9C U10G U11C C12A C13A | 1.34
U7G U8C G9C U10G U11C C12A C13G | 1.18
U7G U8C G9C U10C U11A C12U | 1.06
U7G U8C G9C U10C U11A C12G | 1.11
U7G U8C G9C U10C U11A C12A | 1.06
U7G U8C G9A U10G U11C C12U C13U | 1.12
U7G U8C G9A U10G U11C C12U C13G | 1.16
U7G U8C G9A U10G U11C C12U C13A | 1.12
U7G U8C G9C U10G C12U C13A | 1.11
U7G U8C G9C U10G C12U C13U | 1.14
U7G U8C G9C U10G C12U C13G | 1.08
U7G U8C G9C U10A | 2.18
U7G U8C G9C U10G | 1.17
U7G U8C G9C U10C | 1.92
U7G U8C G9C | 1.35
U7G U8C G9U | 4.98
U7G U8C G9C U11G C12G C13U | 1.1
U7G U8C G9C U11G C12G C13G | 1.12
U7G U8C G9C U11G C12G C13A | 1.12
U7G U8C G9C U10G U11A C12U | 1.04
U7G U8C G9C U10G U11A C12G | 1.17
U7G U8C G9C U10G U11A C12A | 1.28
U7G U8C G9C U11G C12U | 1.66

Variant | aptazyme ON/OFF ratio
U7G U8C G9C U11G C12A | 1.39
U7G U8C G9C U11G C12G | 1.07
U7G U8C G9A U10G U11C C13U | 1.05
U7G U8C G9A U10G U11C C13G | 1.07
U7G U8C G9A U10G U11C C13A | 1.14
U7G U8C G9C U10A C12U C13U | 1.04
U7G U8C G9C U10A C12U C13A | 1.03
U7G U8C G9C U10A C12U C13G | 1.01
U7G U8C G9C U10A U11A C12U | 1.16
U7G U8C G9C U10A U11A C12G | 1.19
U7G U8C G9C U10A U11A C12A | 1.19
U7G U8C G9C U10C U11C C12A C13U | 1.05
U7G U8C G9C U10C U11C C12A C13G | 1.21
U7G U8C G9C U10C U11C C12A C13A | 1.05
U7G U8C G9A U11G C13G | 1.09
U7G U8C G9A U11G C13U | 1.19
U7G U8C G9A U11G C13A | 1.14
U7G U8C G9A U10G U11G C13U | 1.38
U7G U8C G9A U10G U11G C13G | 1.28
U7G U8C G9A U10G U11G C13A | 1.31
U7G U8C G9C U10A U11C C12A C13U | 1.27
U7G U8C G9C U10A U11C C12A C13G | 1.19
U7G U8C G9C U10A U11C C12A C13A | 1.28
U7G U8C G9C U10A C12G C13U | 1.09

Variant | aptazyme ON/OFF ratio
U7G U8C G9C U10A C12G C13G | 1.05
U7G U8C G9C U10A C12G C13A | 1.06
U7G U8C G9C C12A | 1.12
U7G U8C G9C C12U | 1.28
U7G U8C G9C C12G | 1.22
U7G U8C G9C U10A C12A C13G | 1.08
U7G U8C G9C U10A C12A C13A | 1.08
U7G U8C G9C U10A C12A C13U | 1.05
U7G U8C G9C U10A C13U | 1.07
U7G U8C G9C U10A C13A | 1.08
U7G U8C G9C U10A C13G | 1.07
U7G U8C G9U C12G | 3.03
U7G U8C G9U C12A | 1.35
U7G U8C G9C U10A U11G C12A | 1.08
U7G U8C G9C U10A U11G C12G | 1.17
U7G U8C G9C U10A U11G C12U | 1.26
U7G U8C G9A U11G C12U C13G | 1.07
U7G U8C G9A U11G C12U C13A | 1.11
U7G U8C G9A U11G C12U C13U | 1.18
U7G U8C G9C U10G U11C C12U | 1.12
U7G U8C G9C U10G U11C C12G | 1.21
U7G U8C G9C U10G U11C C12A | 1.36
U7G U8C G9C U10A U11C C12U C13A | 1.36
U7G U8C G9C U10A U11C C12U C13G | 1.3

Variant | aptazyme ON/OFF ratio
U7G U8C G9C U10A U11C C12U C13U | 1.09
U7G U8C G9C U10A U11G C12A C13G | 1.12
U7G U8C G9C U10A U11G C12A C13U | 1.11
U7G U8C G9C U10A U11G C12A C13A | 1.1
U7G U8C G9C U10G C12A C13U | 1.13
U7G U8C G9C U10G C12A C13A | 1.1
U7G U8C G9C U10G C12A C13G | 1.1
U7G U8C G9A U10G U11G | 1.77
U7G U8C G9C U10C U11C C13A | 1.04
U7G U8C G9C U10C U11C C13U | 0.999
U7G U8C G9C U10C U11C C13G | 1.36
U7G U8C G9A U11A C12U | 1.36
U7G U8C G9A U11A C12A | 1.2
U7G U8C G9A U11A C12G | 1.1
U7G U8C G9C U10G U11G C12A C13U | 1.1
U7G U8C G9C U10G U11G C12A C13A | 1.11
U7G U8C G9C U10G U11G C12A C13G | 1.13
U7G U8C G9C C12A C13G | 1.15
U7G U8C G9C C12A C13U | 1.16
U7G U8C G9C C12A C13A | 1.15
U7G U8C G9C U10C U11A C13G | 1.11
U7G U8C G9C U10C U11A C13A | 1.04
U7G U8C G9C U10C U11A C13U | 1.03
